Measured values from patent publication US20250304693A1.

Assays:
[1] = molecular target: human BTLA (B- and T-lymphocyte attenuator) on cells (human) (UniProt Q7Z6A9); test: cell-based or functional assay
[2] = molecular target: recombinant human BTLA (human) (UniProt Q7Z6A9); test: ELISA on recombinant human BTLA
[3] = molecular target: human BTLA (B- and T-lymphocyte attenuator) on cells (human) (UniProt Q7Z6A9); test: FACS on HEK293T.hBTLA cells, AF647 anti-human IgG Fc detection
[4] = molecular target: cynomolgus BTLA on cells (cynomolgus); test: FACS on Expi293.cynoBTLA cells, AF647 anti-human IgG Fc detection
[5] = molecular target: human BTLA (B- and T-lymphocyte attenuator) on cells (human) (UniProt Q7Z6A9); test: FACS competition on HEK293T.hBTLA cells; competitor hrHVEM-His-DL650
[6] = molecular target: human BTLA (B- and T-lymphocyte attenuator) on cells (human) (UniProt Q7Z6A9); test: FACS competition on HEK293.BTLA cells; competitor DL650-conjugated soluble HVEM
[7] = molecular target: human BTLA (B- and T-lymphocyte attenuator) on cells (human) (UniProt Q7Z6A9); test: FACS on HEK293 cells overexpressing human BTLA, AF647 anti-human IgG Fc detection
[8] = molecular target: cynomolgus BTLA on cells (cynomolgus); test: FACS on Expi293 cells overexpressing cynomolgus BTLA, AF647 anti-human IgG Fc detection
[9] = molecular target: human BTLA (B- and T-lymphocyte attenuator) on cells (human) (UniProt Q7Z6A9); test: FACS, primary human T cells, donor 149, AF647 anti-human IgG Fc secondary antibody
[10] = molecular target: human BTLA (B- and T-lymphocyte attenuator) on cells (human) (UniProt Q7Z6A9); test: FACS, primary human B cells, donor 149, AF647 anti-human IgG Fc secondary antibody
[11] = molecular target: human BTLA (B- and T-lymphocyte attenuator) on cells (human) (UniProt Q7Z6A9); test: FACS, primary human T cells, donor 1709, AF647 anti-human IgG Fc secondary antibody
[12] = molecular target: human BTLA (B- and T-lymphocyte attenuator) on cells (human) (UniProt Q7Z6A9); test: FACS, primary human B cells, donor 1709, AF647 anti-human IgG Fc secondary antibody

Sequence of human BTLA (B- and T-lymphocyte attenuator) on cells (human) (Q7Z6A9 31-289): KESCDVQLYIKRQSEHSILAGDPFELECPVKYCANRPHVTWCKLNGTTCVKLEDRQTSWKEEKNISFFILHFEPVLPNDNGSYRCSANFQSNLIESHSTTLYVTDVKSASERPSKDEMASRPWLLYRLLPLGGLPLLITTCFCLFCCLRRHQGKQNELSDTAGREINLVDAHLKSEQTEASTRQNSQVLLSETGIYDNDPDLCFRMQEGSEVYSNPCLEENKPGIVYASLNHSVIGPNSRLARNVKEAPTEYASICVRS
Sequence of cynomolgus BTLA on cells (cynomolgus) (chain, as listed by the source): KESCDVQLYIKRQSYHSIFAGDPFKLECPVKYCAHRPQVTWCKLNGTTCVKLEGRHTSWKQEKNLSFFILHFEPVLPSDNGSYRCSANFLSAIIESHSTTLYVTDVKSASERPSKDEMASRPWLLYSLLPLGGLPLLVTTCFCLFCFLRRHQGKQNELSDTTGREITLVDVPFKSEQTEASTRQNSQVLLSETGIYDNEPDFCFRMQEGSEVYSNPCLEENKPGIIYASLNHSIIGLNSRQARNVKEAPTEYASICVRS
Sequence of recombinant human BTLA (human) (Q7Z6A9 31-157 limits assumed): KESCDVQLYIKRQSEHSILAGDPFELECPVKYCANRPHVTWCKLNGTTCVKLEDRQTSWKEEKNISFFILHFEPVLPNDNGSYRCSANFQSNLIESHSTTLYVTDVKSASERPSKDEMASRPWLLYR

B1: JS004 (antibody, INN chains, looked up, V domains shown)
VH: QVQLVQSGAEVKKPGASVKLSCKASGYNFKHTYAHWVRQAPGQGLEWIGRIDPANGNTKYDPKFQGRATMTADTASNTAYLELSSLRSEDTAVYYCVADHYGSSLLDYWGQGTLVTVSS
VL: DVVMTQTPLSLSVTPGQPASISCKSSQSLLDSDGKTYLNWFQQRPGQSPRRLIYLVSKLDSGVPDRFSGSGSGTDFTLKISRVEAEDVGVYYCWQGTYFPYTFGQGTKLEIK
BTLA-HVEM blockade reporter assay, EC50 [1]: 10.4 nM | Reporter EC50 [1]: 13.1 nM | EC50 [2]: 2.43 nM | EC50 [3]: 5.97 nM | EC50 [4]: 5.25 nM | IC50 [5]: 1.47 nM | IC50 [6]: 4.32 nM | EC50 [7]: 0.804 nM | EC50 [8]: 0.561 nM | EC50 [9]: 1.3 nM | Emax(%) [9]: 97% | EC50 [10]: 0.19 nM | Emax(%) [10]: 73% | EC50 [11]: 1.1 nM | Emax(%) [11]: 56% | EC50 [12]: 0.19 nM | Emax(%) [12]: 82%
